Biological target: T1, purified SEMA7A (Homo sapiens, UniProt O75326)
T1 construct: Fc; made in house; host or cells: cells stably transfected with SEMA7A-Fc plasmid (human breast cancer cells); purified from medium
T1 sequence (O75326 45-648 limits assumed): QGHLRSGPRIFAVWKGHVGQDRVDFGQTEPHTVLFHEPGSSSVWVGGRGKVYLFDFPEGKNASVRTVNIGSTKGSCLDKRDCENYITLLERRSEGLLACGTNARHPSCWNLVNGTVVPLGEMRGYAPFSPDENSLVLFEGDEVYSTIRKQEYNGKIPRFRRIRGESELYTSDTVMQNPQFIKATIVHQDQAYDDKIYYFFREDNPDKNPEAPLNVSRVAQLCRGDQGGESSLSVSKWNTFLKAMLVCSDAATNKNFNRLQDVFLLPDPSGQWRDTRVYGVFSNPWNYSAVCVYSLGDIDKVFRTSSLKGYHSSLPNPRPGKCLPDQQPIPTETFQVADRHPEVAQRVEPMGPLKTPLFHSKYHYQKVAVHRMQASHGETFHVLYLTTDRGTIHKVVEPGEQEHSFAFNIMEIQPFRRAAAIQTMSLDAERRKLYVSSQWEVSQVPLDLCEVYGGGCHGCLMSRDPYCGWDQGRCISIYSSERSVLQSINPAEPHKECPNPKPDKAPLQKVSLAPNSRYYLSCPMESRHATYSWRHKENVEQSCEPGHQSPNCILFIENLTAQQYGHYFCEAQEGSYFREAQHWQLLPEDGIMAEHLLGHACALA
Test: ELISA binding to purified SEMA7A
Description: The MultiSorp ELISA 96 well ELISA plate (Thermo Scientific) was coated with 100 μl per well of 50 μg/ml of purified SEMA7A in Coating Buffer A (Thermo Scientific CB07100) and allowed to attach overnight with gentle rocking at 4 degrees. For the peptide competition, half of the antibody was incubated in an Eppendorf tube overnight at a ratio of 1:10 with the SEMA7A peptide on a rotator at 4 degrees. The plate was washed with 200 μl per well of 1× wash buffer (Thermo Scientific WB01) and blocked with 200 μl 1× assay buffer (Thermo Scientific DS98200) for 2 hours and room temp with gentle rocking. 1× assay buffer was removed and a 200 μl serial dilution of SMEA7A mAb in 1× assay buffer was made from columns 1 through 9, with column 10-12 getting 1× assay buffer only. The plate was incubated overnight with gentle rocking at 4 degrees. The plate was washed twice with 200 μl of 1× wash buffer. 100 μl of 200 ng/ml Goat Anti-Mouse IgG HRP (Abcam 97040) in 1× assay buffer was added to columns 1-11, with column 12 getting 1× assay buffer only. The plate was incubated for 2 hours with gentle rocking at room temp. The plate was washed four times with 200 μl 1× wash buffer. 150 μl SuperSignal Femto for ELISA (Thermo Scientific) was mixed 1:1 added to each well and mixed for 1 min and then left to rock at room temperature for 30 minutes. The absorbance was read at 425 nm on a microplate reader.

binding to purified SEMA7A in presence of immunizing peptide (10× immunizing peptide): blocked this ability
B1: recombinant anti-SEMA7A monoclonal antibody: recombinant anti-SEMA7A monoclonal antibody; illustrative recombinant heavy chain SEQ ID NO: 28, light chain SEQ ID NO: 29 (antibody)
heavy: EVQLQQSGTVLARPGASVKMSCKASGYSFTSYWMHWVKQRPGQGLEWIGAIYPGNSDTSYNQKFKGKAKLTAVTSASTAYMELSSLTNEDSAVYYCTRGGAPTMITAYYAMDYWGQGTSVTVSSAKTTPPSVYPLAPGSAAQTNSMVTLGCLVKGYFPEPVTVTWNSGSLSSGVHTFPAVLQSDLYTLSSSVTVPSSTWPSETVTCNVAHPASSTKVDKKIVPRDCGCKPCICTVPEVSSVFIFPPKPKDVLTITLTPKVTCVVVDISKDDPEVQFSWFVDDVEVHTAQTQPREEQFNSTFRSVSELPIMHQDWLNGKEFKCRVNSAAFPAPIEKTISKTKGRPKAPQVYTIPPPKEQMAKDKVSLTCMITDFFPEDITVEWQWNGQPAENYKNTQPIMDTDGSYFVYSKLNVQKSNWEAGNTFTCSVLHEGLHNHHTEKSLSHSPGK
light: DIQMTQTTSSLSASLGDRVTISCRASQDISNYLNWYQQKPDGTVKLLIYYTSRLHSGVPSRFSGSGSGTDYSLTISNLEQEDIATYFCQQGNTLPWTFGGGTKLEIKRADAAPTVSIFPPSSEQLTSGGASVVCFLNNFYPKDINVKWKIDGSERQNGVLNSWTDQDSKDSTYSMSSTLTLTKDEYERHNSYTCEATHKTSTSPIVKSFNRNEC
binding to purified SEMA7A (serial dilution): bound to purified SEMA7A in a dose dependent manner

Reference: patent US20250206839A1, “METHODS, COMPOSITIONS AND USES FOR SEMA7A MONOCLONAL ANTIBODIES” (THE REGENTS OF THE UNIVERSITY OF COLORADO, A BODY CORPORATE, priority 2022, published 2025)
